# In publication PMC4373775:
# Substitutions are numbered along the chain they refer to.
# What was measured:
# [1] = target: T1, ParB_Asp S5D;T32D;T41D;T53D;T110D;T195D;S239D;T254D;T300D;T303D (Mycobacterium tuberculosis H37Rv) (UniProt P9WIJ9); assay: EMSA
# T1 sequence: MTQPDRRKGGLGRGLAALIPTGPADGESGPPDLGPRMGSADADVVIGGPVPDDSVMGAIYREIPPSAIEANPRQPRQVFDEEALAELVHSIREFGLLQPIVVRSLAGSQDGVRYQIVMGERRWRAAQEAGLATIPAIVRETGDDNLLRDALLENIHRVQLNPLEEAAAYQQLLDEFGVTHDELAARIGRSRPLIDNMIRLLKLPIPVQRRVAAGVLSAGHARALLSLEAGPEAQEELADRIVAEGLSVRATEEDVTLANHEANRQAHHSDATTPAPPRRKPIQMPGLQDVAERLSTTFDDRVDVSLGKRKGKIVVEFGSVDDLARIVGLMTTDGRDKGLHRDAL
# [2] = target: T2, ParB_Ala S5A;T32A;T41A;T53A;T110A;T195A;S239A;T254A;T300A;T303A (Mycobacterium tuberculosis H37Rv) (UniProt P9WIJ9); assay: EMSA
# T2 sequence: T1 sequence with D5A, D32A, D41A, D53A, D110A, D195A, D239A, D254A, D300A, D303A
sequence,measurement,setting,value
GCGAGTGGAGGGACGGCGTGAGTGCTCCGTGGGGCCCGGTGGCCGCTGGACCGTCCGCGCTCGTAAGGTCGGGCCAGGCTTCAACTATCGAACCATTCCAGCGGGAAATGACACCACCGACACCGACGCCTGAGGCCGCGCACAATCCGACGATGAATGTTTCACGTGAAACATCGACAGAATTCGACACCCCCATCGGCGCTGCAGCAGAACGTGCGATGCG (double strand) [parS probe],binding,[1],binds more weakly
same,binding,[2],binds
